Laboratory results taken from patent US20250304643A1 (BAINAN BIOTECH, published 2025).
*1 amine or outer side, *2 acyl side, *3 side chain or, on linkers, in order; H or OH if unused. Where no end group is shown, it is not given here. Side-chain parts run from the residue outwards. [ ]: non-standard residue; d: D form. The star is where a group is joined. γGlu = O=C(O)[C@H](CCC(=O)[*:2])N[*:1]; Palmitoyl = CCCCCCCCCCCCCCCC(=O)*; Decanoyl = CCCCCCCCCC(=O)*; Aib = CC(C)(N)C(=O)O

target: human GLP-1R (GLP-1 receptor) (human, UniProt P43220 24-463); assay: cell-based or functional assay

| Binder | cAMP assay: Efficacy GLP-1R | cAMP assay: EC50 (nM) GLP-1R | cAMP assay: logEC50 GLP-1R |
| --- | --- | --- | --- |
| Palmitoyl-H[Aib]DGTFISDYST[Aib]LDNLAARDFINWLIQTKITK-OH (SMILES CCCCCCCCCCCCCCCC(=O)N[C@@H](Cc1c[nH]cn1)C(=O)NC(C)(C)C(=O)N[C@@H](CC(=O)O)C(=O)NCC(=O)N[C@H](C(=O)N[C@@H](Cc1ccccc1)C(=O)N[C@H](C(=O)N[C@@H](CO)C(=O)N[C@@H](CC(=O)O)C(=O)N[C@@H](Cc1ccc(O)cc1)C(=O)N[C@@H](CO)C(=O)N[C@H](C(=O)NC(C)(C)C(=O)N[C@@H](CC(C)C)C(=O)N[C@@H](CC(=O)O)C(=O)N[C@@H](CC(N)=O)C(=O)N[C@@H](CC(C)C)C(=O)N[C@@H](C)C(=O)N[C@@H](C)C(=O)N[C@@H](CCCNC(=N)N)C(=O)N[C@@H](CC(=O)O)C(=O)N[C@@H](Cc1ccccc1)C(=O)N[C@H](C(=O)N[C@@H](CC(N)=O)C(=O)N[C@@H](Cc1c[nH]c2ccccc12)C(=O)N[C@@H](CC(C)C)C(=O)N[C@H](C(=O)N[C@@H](CCC(N)=O)C(=O)N[C@H](C(=O)N[C@@H](CCCCN)C(=O)N[C@H](C(=O)N[C@H](C(=O)N[C@@H](CCCCN)C(=O)O)[C@@H](C)O)[C@@H](C)CC)[C@@H](C)O)[C@@H](C)CC)[C@@H](C)CC)[C@@H](C)O)[C@@H](C)CC)[C@@H](C)O) [Compound no. 5] | 6% | – | – |
| Palmitoyl-H[Aib]DGTFISDYSTILD[Aib]LAARDFINWLIQTKITK-OH (SMILES CCCCCCCCCCCCCCCC(=O)N[C@@H](Cc1c[nH]cn1)C(=O)NC(C)(C)C(=O)N[C@@H](CC(=O)O)C(=O)NCC(=O)N[C@H](C(=O)N[C@@H](Cc1ccccc1)C(=O)N[C@H](C(=O)N[C@@H](CO)C(=O)N[C@@H](CC(=O)O)C(=O)N[C@@H](Cc1ccc(O)cc1)C(=O)N[C@@H](CO)C(=O)N[C@H](C(=O)N[C@H](C(=O)N[C@@H](CC(C)C)C(=O)N[C@@H](CC(=O)O)C(=O)NC(C)(C)C(=O)N[C@@H](CC(C)C)C(=O)N[C@@H](C)C(=O)N[C@@H](C)C(=O)N[C@@H](CCCNC(=N)N)C(=O)N[C@@H](CC(=O)O)C(=O)N[C@@H](Cc1ccccc1)C(=O)N[C@H](C(=O)N[C@@H](CC(N)=O)C(=O)N[C@@H](Cc1c[nH]c2ccccc12)C(=O)N[C@@H](CC(C)C)C(=O)N[C@H](C(=O)N[C@@H](CCC(N)=O)C(=O)N[C@H](C(=O)N[C@@H](CCCCN)C(=O)N[C@H](C(=O)N[C@H](C(=O)N[C@@H](CCCCN)C(=O)O)[C@@H](C)O)[C@@H](C)CC)[C@@H](C)O)[C@@H](C)CC)[C@@H](C)CC)[C@@H](C)CC)[C@@H](C)O)[C@@H](C)CC)[C@@H](C)O) [Compound no. 6] | 34% | 39.8 nM | 7.4 |
| Palmitoyl-H[Aib]DGTFISDYSTILDNLAARDFIEWLIQTKITK-OH (SMILES CCCCCCCCCCCCCCCC(=O)N[C@@H](Cc1c[nH]cn1)C(=O)NC(C)(C)C(=O)N[C@@H](CC(=O)O)C(=O)NCC(=O)N[C@H](C(=O)N[C@@H](Cc1ccccc1)C(=O)N[C@H](C(=O)N[C@@H](CO)C(=O)N[C@@H](CC(=O)O)C(=O)N[C@@H](Cc1ccc(O)cc1)C(=O)N[C@@H](CO)C(=O)N[C@H](C(=O)N[C@H](C(=O)N[C@@H](CC(C)C)C(=O)N[C@@H](CC(=O)O)C(=O)N[C@@H](CC(N)=O)C(=O)N[C@@H](CC(C)C)C(=O)N[C@@H](C)C(=O)N[C@@H](C)C(=O)N[C@@H](CCCNC(=N)N)C(=O)N[C@@H](CC(=O)O)C(=O)N[C@@H](Cc1ccccc1)C(=O)N[C@H](C(=O)N[C@@H](CCC(=O)O)C(=O)N[C@@H](Cc1c[nH]c2ccccc12)C(=O)N[C@@H](CC(C)C)C(=O)N[C@H](C(=O)N[C@@H](CCC(N)=O)C(=O)N[C@H](C(=O)N[C@@H](CCCCN)C(=O)N[C@H](C(=O)N[C@H](C(=O)N[C@@H](CCCCN)C(=O)O)[C@@H](C)O)[C@@H](C)CC)[C@@H](C)O)[C@@H](C)CC)[C@@H](C)CC)[C@@H](C)CC)[C@@H](C)O)[C@@H](C)CC)[C@@H](C)O) [Compound no. 7] | 13% | 39.8 nM | 7.4 |
| Palmitoyl-H[Aib]DGTFISDYSTILDNLAARDFIEWLIQTKIT-OH (SMILES CCCCCCCCCCCCCCCC(=O)N[C@@H](Cc1c[nH]cn1)C(=O)NC(C)(C)C(=O)N[C@@H](CC(=O)O)C(=O)NCC(=O)N[C@H](C(=O)N[C@@H](Cc1ccccc1)C(=O)N[C@H](C(=O)N[C@@H](CO)C(=O)N[C@@H](CC(=O)O)C(=O)N[C@@H](Cc1ccc(O)cc1)C(=O)N[C@@H](CO)C(=O)N[C@H](C(=O)N[C@H](C(=O)N[C@@H](CC(C)C)C(=O)N[C@@H](CC(=O)O)C(=O)N[C@@H](CC(N)=O)C(=O)N[C@@H](CC(C)C)C(=O)N[C@@H](C)C(=O)N[C@@H](C)C(=O)N[C@@H](CCCNC(=N)N)C(=O)N[C@@H](CC(=O)O)C(=O)N[C@@H](Cc1ccccc1)C(=O)N[C@H](C(=O)N[C@@H](CCC(=O)O)C(=O)N[C@@H](Cc1c[nH]c2ccccc12)C(=O)N[C@@H](CC(C)C)C(=O)N[C@H](C(=O)N[C@@H](CCC(N)=O)C(=O)N[C@H](C(=O)N[C@@H](CCCCN)C(=O)N[C@H](C(=O)N[C@H](C(=O)O)[C@@H](C)O)[C@@H](C)CC)[C@@H](C)O)[C@@H](C)CC)[C@@H](C)CC)[C@@H](C)CC)[C@@H](C)O)[C@@H](C)CC)[C@@H](C)O) [Compound no. 8] | 19% | 10 nM | 8 |
| H[Aib]DGTFK([γGlu-Palmitoyl])SDYSTILDNLAARDFINWLIQTKITK-OH (N-terminus assumed; SMILES CCCCCCCCCCCCCCCC(=O)N[C@@H](CCC(=O)NCCCC[C@H](NC(=O)[C@H](Cc1ccccc1)NC(=O)[C@@H](NC(=O)CNC(=O)[C@H](CC(=O)O)NC(=O)C(C)(C)NC(=O)[C@@H](N)Cc1c[nH]cn1)[C@@H](C)O)C(=O)N[C@@H](CO)C(=O)N[C@@H](CC(=O)O)C(=O)N[C@@H](Cc1ccc(O)cc1)C(=O)N[C@@H](CO)C(=O)N[C@H](C(=O)N[C@H](C(=O)N[C@@H](CC(C)C)C(=O)N[C@@H](CC(=O)O)C(=O)N[C@@H](CC(N)=O)C(=O)N[C@@H](CC(C)C)C(=O)N[C@@H](C)C(=O)N[C@@H](C)C(=O)N[C@@H](CCCNC(=N)N)C(=O)N[C@@H](CC(=O)O)C(=O)N[C@@H](Cc1ccccc1)C(=O)N[C@H](C(=O)N[C@@H](CC(N)=O)C(=O)N[C@@H](Cc1c[nH]c2ccccc12)C(=O)N[C@@H](CC(C)C)C(=O)N[C@H](C(=O)N[C@@H](CCC(N)=O)C(=O)N[C@H](C(=O)N[C@@H](CCCCN)C(=O)N[C@H](C(=O)N[C@H](C(=O)N[C@@H](CCCCN)C(=O)O)[C@@H](C)O)[C@@H](C)CC)[C@@H](C)O)[C@@H](C)CC)[C@@H](C)CC)[C@@H](C)CC)[C@@H](C)O)C(=O)O) [Compound no. 10] | 10% | 100 nM | 7 |
| HXDGTFISDYKTILDNLAARDFINWLIQTKITK (Aib at 2; K(γGlu-C16) at 11; C-terminus -OH) [Compound no. 11] | 11% | – | – |
| H[Aib]DGTFISDYK([γGlu-Decanoyl])TILDKLAARDFIEWLIATKITK-OH (N-terminus assumed; SMILES CCCCCCCCCC(=O)N[C@@H](CCC(=O)NCCCC[C@H](NC(=O)[C@H](Cc1ccc(O)cc1)NC(=O)[C@H](CC(=O)O)NC(=O)[C@H](CO)NC(=O)[C@@H](NC(=O)[C@H](Cc1ccccc1)NC(=O)[C@@H](NC(=O)CNC(=O)[C@H](CC(=O)O)NC(=O)C(C)(C)NC(=O)[C@@H](N)Cc1c[nH]cn1)[C@@H](C)O)[C@@H](C)CC)C(=O)N[C@H](C(=O)N[C@H](C(=O)N[C@@H](CC(C)C)C(=O)N[C@@H](CC(=O)O)C(=O)N[C@@H](CCCCN)C(=O)N[C@@H](CC(C)C)C(=O)N[C@@H](C)C(=O)N[C@@H](C)C(=O)N[C@@H](CCCNC(=N)N)C(=O)N[C@@H](CC(=O)O)C(=O)N[C@@H](Cc1ccccc1)C(=O)N[C@H](C(=O)N[C@@H](CCC(=O)O)C(=O)N[C@@H](Cc1c[nH]c2ccccc12)C(=O)N[C@@H](CC(C)C)C(=O)N[C@H](C(=O)N[C@@H](C)C(=O)N[C@H](C(=O)N[C@@H](CCCCN)C(=O)N[C@H](C(=O)N[C@H](C(=O)N[C@@H](CCCCN)C(=O)O)[C@@H](C)O)[C@@H](C)CC)[C@@H](C)O)[C@@H](C)CC)[C@@H](C)CC)[C@@H](C)CC)[C@@H](C)O)C(=O)O) [Compound no. 31] | 6% | 39.8 nM | 7.4 |
| Decanoyl-H[Aib]DGTFISDYST[Aib]LDNLAARDFINWLIQTKITK-OH (SMILES CCCCCCCCCC(=O)N[C@@H](Cc1c[nH]cn1)C(=O)NC(C)(C)C(=O)N[C@@H](CC(=O)O)C(=O)NCC(=O)N[C@H](C(=O)N[C@@H](Cc1ccccc1)C(=O)N[C@H](C(=O)N[C@@H](CO)C(=O)N[C@@H](CC(=O)O)C(=O)N[C@@H](Cc1ccc(O)cc1)C(=O)N[C@@H](CO)C(=O)N[C@H](C(=O)NC(C)(C)C(=O)N[C@@H](CC(C)C)C(=O)N[C@@H](CC(=O)O)C(=O)N[C@@H](CC(N)=O)C(=O)N[C@@H](CC(C)C)C(=O)N[C@@H](C)C(=O)N[C@@H](C)C(=O)N[C@@H](CCCNC(=N)N)C(=O)N[C@@H](CC(=O)O)C(=O)N[C@@H](Cc1ccccc1)C(=O)N[C@H](C(=O)N[C@@H](CC(N)=O)C(=O)N[C@@H](Cc1c[nH]c2ccccc12)C(=O)N[C@@H](CC(C)C)C(=O)N[C@H](C(=O)N[C@@H](CCC(N)=O)C(=O)N[C@H](C(=O)N[C@@H](CCCCN)C(=O)N[C@H](C(=O)N[C@H](C(=O)N[C@@H](CCCCN)C(=O)O)[C@@H](C)O)[C@@H](C)CC)[C@@H](C)O)[C@@H](C)CC)[C@@H](C)CC)[C@@H](C)O)[C@@H](C)CC)[C@@H](C)O) [Compound no. 44] | 19% | – | – |
